In one assay the target is T1, trop-2 protein (UniProt P09758 27-274, limits assumed).
T1 construct: Bought antigen, used as the SPR analyte; The printed catalogue number is doubtful
T1 sequence (looked up): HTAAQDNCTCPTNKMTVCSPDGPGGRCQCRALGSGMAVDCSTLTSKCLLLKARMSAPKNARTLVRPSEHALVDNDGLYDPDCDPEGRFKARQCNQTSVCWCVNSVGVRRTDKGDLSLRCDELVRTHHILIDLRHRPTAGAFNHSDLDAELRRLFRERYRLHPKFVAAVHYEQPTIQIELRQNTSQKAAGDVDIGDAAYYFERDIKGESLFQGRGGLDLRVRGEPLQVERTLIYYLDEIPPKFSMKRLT
Description: SPR (Biacore T100, 25 C); binder captured on anti-human IgG CM5 chip, trop-2 protein as analyte.

In a further assay the target is T2, GPC-3 protein (UniProt P51654 25-559, limits assumed).
T2 construct: Bought antigen, used as the SPR analyte; also called Glypican-3
Description: SPR (Biacore T100, 25 C); binder captured on anti-human IgG CM5 chip, GPC-3 protein as analyte. A general note: In SPR one partner is held on a chip, and binding of the other changes the refractive index at the surface.

T2 sequence (P51654 25-559 limits assumed): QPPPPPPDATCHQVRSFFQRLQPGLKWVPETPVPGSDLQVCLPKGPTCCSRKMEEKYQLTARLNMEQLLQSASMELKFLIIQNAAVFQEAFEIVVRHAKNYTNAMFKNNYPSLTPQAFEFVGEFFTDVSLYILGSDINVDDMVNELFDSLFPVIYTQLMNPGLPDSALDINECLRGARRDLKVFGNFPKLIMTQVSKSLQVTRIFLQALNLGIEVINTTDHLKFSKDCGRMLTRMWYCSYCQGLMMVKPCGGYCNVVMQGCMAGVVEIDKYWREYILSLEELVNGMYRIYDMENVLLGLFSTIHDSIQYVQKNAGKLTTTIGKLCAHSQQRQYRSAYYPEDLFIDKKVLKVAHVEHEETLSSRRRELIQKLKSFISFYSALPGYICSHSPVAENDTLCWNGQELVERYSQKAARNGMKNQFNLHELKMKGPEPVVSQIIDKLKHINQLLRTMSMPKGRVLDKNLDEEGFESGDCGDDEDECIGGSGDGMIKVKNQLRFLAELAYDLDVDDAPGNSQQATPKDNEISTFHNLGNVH

B1: anti-trop-2 antibody BY43 (sacituzumab) (antibody, human IgG1, kappa, V domains shown)
VH: QVQLQQSGSELKKPGASVKVSCKASGYTFTNYGMNWVKQAPGQGLKWMGWINTYTGEPTYTDDFKGRFAFSLDTSVSTAYLQISSLKADDTAVYFCARGGFGSSYWYFDVWGQGSLVTVSS
VL: DIQLTQSPSSLSASVGDRVSITCKASQDVSIAVAWYQQKPGKAPKLLIYSASYRYTGVPDRFSGSGSGTDFTLTISSLQPEDFAVYYCQQHYITPLTFGAGTKVEIKR
notes: Made in-house from INN 10418; also called control antibody BY43
What is called Kd is the constant that tells how readily two partners part at equilibrium. A low value points to higher affinity. For orientation: koff means the first-order rate constant of dissociation. A lower koff goes with slow dissociation. For orientation: kon means a measure of how fast the partners come together. Lower therefore signals slower complex formation. B1: in the assay with trop-2 protein, the Kd was determined as 0.857 nM, the koff was 4.82e-05 s⁻¹ and the kon came to 56300 M⁻¹ s⁻¹.

B2: anti-GPC-3 antibody BY20.2 (codrituzumab) (antibody, human IgG1, kappa, V domains shown)
VH: QVQLVQSGAEVKKPGASVKVSCKASGYTFTDYEMHWVRQAPGQGLEWMGALDPKTGDTAYSQKFKGRVTLTADKSTSTAYMELSSLTSEDTAVYYCTRFYSYTYWGQGTLVTVSS
VL: DVVMTQSPLSLPVTPGEPASISCRSSQSLVHSNRNTYLHWYLQKPGQSPQLLIYKVSNRFSGVPDRFSGSGSGTDFTLKISRVEAEDVGVYYCSQNTHVPPTFGQGTKLEIKR
notes: Made in-house from INN 9759; If the listing has 19, the mature range is 20-238; also called control antibody BY20.2
Turning to B2, in the assay with GPC-3 protein, the Kd worked out at 2.08 nM, the koff was determined as 7.57e-05 s⁻¹ and the association rate constant (kon) came out at 36400 M⁻¹ s⁻¹.
